# Patent US20260274955A1 (JANUX THERAPEUTICS, published 2026)
# Experiments:
# [1] = target: Anti-CD28 Fab (SEQ ID NOs: 202, 203); assay: phage binding ELISA on captured Fab, competitor CD28 antigen;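 further: clonal phage supernatant binding in wells preincubated with CD28 antigen in blocking buffer, detected by HRP-conjugated anti-M13 antibody ELISA, compared with blocking buffer alone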
# Description: (§1) Clonal phage were harvested as crude supernatants and screened via standard ELISAs. […] Prior to the addition of clonal phage, wells were incubated with blocking buffer and CD28 antigen or blocking buffer alone. Without washing or aspirating, clonal phage supernatants were then added to the wells and incubated for a short time. Wells were then washed followed by detection of bound phage using a horse radish conjugated anti-M13 antibody.
# [2] = target: Anti-CD28 Fab (SEQ ID NOs: 202, 203); assay: phage binding ELISA on captured Fab;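 further: clonal phage supernatants added briefly to wells pre-incubated with CD28 antigen or with blocking buffer only, then washed, bound phage read by ELISA using HRP-coupled anti-M13 antibody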
# Description: as §1
# Anti-CD28 Fab (SEQ ID NOs: 202, 203), sequence (VH, as listed by the source, chain 1 of 2): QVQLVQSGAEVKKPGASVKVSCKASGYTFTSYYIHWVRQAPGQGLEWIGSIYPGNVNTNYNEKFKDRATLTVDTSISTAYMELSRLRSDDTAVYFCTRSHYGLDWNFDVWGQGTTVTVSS
# Anti-CD28 Fab (SEQ ID NOs: 202, 203), sequence (VL, as listed by the source, chain 2 of 2): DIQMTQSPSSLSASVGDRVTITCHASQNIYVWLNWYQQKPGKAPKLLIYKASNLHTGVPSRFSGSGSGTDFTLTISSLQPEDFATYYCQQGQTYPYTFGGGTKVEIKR
Binder,Anti-CD28 Fab signal in the presence of CD28 [1],"Anti-CD28 Fab (SEQ ID NOs: 202, 203) signal [2]"
YCAGHIGEYMDKCL [Phage-828],0.58,0.75
YCDGHIMPYLDKCL [Phage-862],0.05,0.57
YCDGHVTEYMAKCL [Phage-861],0.07,0.58
YCMGHSAEYMGKCL [Phage-848],0.06,0.64
YCDGHAGIYVLKCL [Phage-829],0.08,0.75
YCAGHTQEYMLKCL [Phage-824],0.06,0.78
YCAGHAAIYMAKCL [Phage-814],0.07,0.85
YCEGHMSEYMRKCL [Phage-841],0.1,0.69
YCEGHKKEYMLKCL [Phage-863],0.08,0.56
YCDGHLPRFMVKCL [Phage-839],0.07,0.69
YCEGHSSEYMVKCL [Phage-826],0.06,0.77
YCDGHNPVYLAKCL [Phage-830],0.08,0.74
YCQGHAPWYMVKCL [Phage-840],0.08,0.69
YCEGHAREYMDKCL [Phage-820],0.07,0.8
YCDGHMDAYMSKCL [Phage-847],0.06,0.65
YCQGHSELYMSKCL [Phage-858],0.08,0.6
YCDGHEPQYMTKCL [Phage-843],0.1,0.68
YCEGHLPMYMQKCM [Phage-818],0.07,0.82
YCEGHSRQYMEKCM [Phage-852],0.33,0.63
YCEGHLPQYLAKCY [Phage-844],0.08,0.67
YCDGHAWWYMEKCL [Phage-849],0.06,0.64
YCEGHFGMYMSKCL [Phage-833],0.07,0.73
YCDGHTGVYKWKCI [Phage-827],0.06,0.76

Binder,Anti-CD28 Fab signal in the presence of CD28 [1],"Anti-CD28 Fab (SEQ ID NOs: 202, 203) signal [2]"
YCEGHAQQYMLKCL [Phage-831],0.05,0.74
YCEGHAQMYMLKCL [Phage-851],0.06,0.64
YCDGHDPQYIRKCI [Phage-817],0.06,0.83
YCDGHIEMYMSKCM [Phage-855],0.06,0.61
YCAGHSVQYMYKCL [Phage-832],0.06,0.74
YCDGHKWEYLQKCL [Phage-816],0.06,0.84
YCAGHMPQYMSKCL [Phage-834],0.05,0.72
YCQGHALQYLQKCL [Phage-835],0.08,0.71
YCDGHSMTYMAKCI [Phage-815],0.06,0.84
YCSGHLPMYMAKCL [Phage-853],0.13,0.62
YCEGHAAVYMHKCL [Phage-846],0.09,0.67
YCAGHLPQYVSKCL [Phage-836],0.06,0.7
YCEGHIGDYIAKCL [Phage-857],0.36,0.61
YCDGHTPQFRAKCL [Phage-859],0.07,0.59
YCEGHLAVHMSKCL [Phage-854],0.06,0.62
YCDGHSPQYLWKCL [Phage-822],0.05,0.8
YCAGHSAEYIQKCL [Phage-823],0.08,0.8
YCVGHLPLYMPNCL [Phage-842],0.11,0.68
YCQGHSVQYMAKCL [Phage-825],0.06,0.77
YCDGHHLEYIDKCL [Phage-838],0.06,0.69
YCEGHLPWYMSKCL [Phage-837],0.09,0.69
YCEGHLQEYMGKCL [Phage-860],0.25,0.58
YCDGHAAWYLQKCL [Phage-850],0.07,0.64
